Data on two sequences can be found in article PMC12182893.

This series has as its target Pseudotyped lentivirus displaying Omicron BA.5 S protein (PV) (SARS-CoV-2 Omicron BA.5) (UniProt P0DTC2). Briefly: dot blot (filter binding).

Usually Kd stands for the concentration at which binding is half-saturated. In the case of “TTACGTCAAGGTGTCACTCCTGTGGGTGGAATGGGGAAGGGAGTGTTTTTTTTTTCGGAGATGTGTGTGTGAAACAGTGGGAAGCATCTCTTTGGCGTG [DRDA10]”, the dissociation constant Kd came to 0.0043 pM.

Turning to “TTACGTCAAGGTGTCACTCCTGTGGGTGGAATGGGGAAGGGAGTGTTTTTTTTTGTGAGATGTGTGGTGTGGAATGGGGAAGCATCTCTTTGGCGTG [DRDA8]”, the Kd was 0.0028 pM.
